Laboratory results taken from paper PMC8741920.

Tests used:
[1] = target: recombinant soluble human FcRn with β2-microglobulin (sFcRn) (human) (UniProt P55899); experiment: SPR; pH 6.0
[2] = target: recombinant soluble human FcRn with β2-microglobulin (sFcRn) (human) (UniProt P55899); experiment: SPR; pH 7.4

UniProt P55899, sequence (P55899 24-297, chain 1 of 2): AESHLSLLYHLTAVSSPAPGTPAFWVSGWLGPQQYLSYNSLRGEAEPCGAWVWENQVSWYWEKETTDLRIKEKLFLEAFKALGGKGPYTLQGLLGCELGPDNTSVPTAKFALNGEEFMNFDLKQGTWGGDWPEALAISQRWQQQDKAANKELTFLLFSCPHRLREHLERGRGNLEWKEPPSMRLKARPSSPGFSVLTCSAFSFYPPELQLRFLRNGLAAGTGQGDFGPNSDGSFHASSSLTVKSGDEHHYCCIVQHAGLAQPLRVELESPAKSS
UniProt P55899, sequence (partner, as listed by the source, chain 2 of 2): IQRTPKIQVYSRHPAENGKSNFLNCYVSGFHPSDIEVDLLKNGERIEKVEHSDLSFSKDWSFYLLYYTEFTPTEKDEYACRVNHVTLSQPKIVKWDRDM

| Substance | Kd [1] [nM] | Kd [2] [nM] |
| --- | --- | --- |
| anti-biotin IgG1-WT (from UniProt P01857) | 59.3 |  |
| anti-biotin IgG1-MST-HN (from UniProt P01857) | 8 | 893 |
